Laboratory results: article PMC7696373

Target: isoform CBd of the basic phospholipase A2 (PLA2) subunit of crotoxin (Crotalus durissus terrificus)
Test: crystal structure

## isoform CBd of the basic phospholipase A2 (PLA2) subunit of crotoxin (enzyme)
  stoichiometry N: 4
